According to the Immune Epitope Database (IEDB):

Experiments:
HLA-A*31:01 [1] = assay: IEDB peptide-MHC binding, purified MHC/competitive/fluorescence; filed as Kd, often an IC50 or EC50 that approximates it; ≥ and ≤ were set here for values at or beyond the usual limits of such assays
HLA-A*03:01 [2] = assay: IEDB peptide-MHC binding, purified MHC/direct/fluorescence; filed as Kd, often an IC50 or EC50 that approximates it; ≥ and ≤ were set here for values at or beyond the usual limits of such assays
HLA-A*23:01 = assay: IEDB peptide-MHC binding, purified MHC/competitive/fluorescence; filed as Kd, often an IC50 or EC50 that approximates it; ≥ and ≤ were set here for values at or beyond the usual limits of such assays
HLA-B*46:01 [3] = assay: IEDB peptide-MHC binding, purified MHC/direct/fluorescence; filed as Kd, often an IC50 or EC50 that approximates it; ≥ and ≤ were set here for values at or beyond the usual limits of such assays
HLA-B*51:01 [4] = assay: as above; details: source organism: Brucella suis 1330
HLA-A*02:19 [5] = assay: as above; details: source organism: Brucella suis 1330
HLA-A*02:12 [6] = assay: as above; details: source organism: Brucella suis 1330
HLA-B*18:01 = assay: as above; details: source organism: Brucella suis 1330
HLA-B*15:01 [7] = assay: as above; details: source organism: Brucella suis 1330
HLA-A*26:01 [8] = assay: as above; details: source organism: Brucella suis 1330
HLA-A*02:01 [9] = assay: as above
HLA-B*57:01 [10] = assay: as above; details: source organism: Brucella suis 1330
HLA-A*02:16 [11] = assay: as above; details: source organism: Brucella suis 1330
HLA-A*69:01 [12] = assay: as above; details: source organism: Marburg virus - Musoke, Kenya, 1980
HLA-C*03:03 = assay: as above
HLA-A*69:01 [13] = assay: IEDB peptide-MHC binding, purified MHC/competitive/fluorescence; filed as Kd, often an IC50 or EC50 that approximates it; ≥ and ≤ were set here for values at or beyond the usual limits of such assays
HLA-B*15:01 [14] = assay: as above
HLA-B*57:01 [15] = assay: as above
HLA-A*11:01 [16] = assay: as above; details: source organism: Vaccinia virus Copenhagen
HLA-B*40:01 = assay: IEDB peptide-MHC binding, purified MHC/direct/fluorescence; filed as Kd, often an IC50 or EC50 that approximates it; ≥ and ≤ were set here for values at or beyond the usual limits of such assays; details: source organism: Camelpox virus M-96
HLA-B*15:17 = assay: as above; details: source organism: Camelpox virus M-96
HLA-A*31:01 [17] = assay: as above; details: source organism: Camelpox virus M-96
HLA-B*27:05 = assay: as above; details: source organism: Camelpox virus M-96
HLA-B*08:02 = assay: as above; details: source organism: Variola virus
HLA-B*48:01 = assay: as above; details: source organism: Camelpox virus M-96
HLA-A*01:01 = assay: as above; details: source organism: Camelpox virus M-96
HLA-B*58:01 = assay: as above; details: source organism: Camelpox virus M-96
HLA-A*11:01 [18] = assay: as above
HLA-A*68:02 = assay: IEDB peptide-MHC binding, purified MHC/competitive/fluorescence; filed as Kd, often an IC50 or EC50 that approximates it; ≥ and ≤ were set here for values at or beyond the usual limits of such assays; details: source organism: Entamoeba histolytica HM-1:IMSS
HLA-B*46:01 [19] = assay: as above; details: source organism: Entamoeba histolytica HM-1:IMSS
HLA-B*51:01 [20] = assay: as above; details: source organism: Entamoeba histolytica HM-1:IMSS
HLA-B*27:03 = assay: as above; details: source organism: Entamoeba histolytica HM-1:IMSS
HLA-A*02:19 [21] = assay: as above; details: source organism: Entamoeba histolytica HM-1:IMSS
HLA-B*39:01 = assay: as above; details: source organism: Entamoeba histolytica HM-1:IMSS
HLA-A*02:12 [22] = assay: as above; details: source organism: Entamoeba histolytica HM-1:IMSS
HLA-A*02:11 = assay: as above; details: source organism: Entamoeba histolytica HM-1:IMSS
HLA-A*03:01 [23] = assay: as above
HLA-A*26:01 [24] = assay: as above; details: source organism: Entamoeba histolytica HM-1:IMSS
HLA-A*02:01 [25] = assay: as above
HLA-A*02:16 [26] = assay: as above
[27] = source organism: Brucella suis 1330
[28] = source organism: Vaccinia virus Copenhagen
[29] = source organism: Camelpox virus M-96
[30] = source organism: Influenza A virus (A/Goose/Hong Kong/385.3/2000(H5N1))
[31] = source organism: Entamoeba histolytica HM-1:IMSS
[32] = source organism: Mycobacterium tuberculosis variant bovis BCG str. Pasteur 1173P2
[33] = source organism: Mycobacterium tuberculosis
[34] = source organism: Escherichia coli 536
[35] = source organism: Coxiella burnetii RSA 493
[36] = source organism: Giardia lamblia ATCC 50803

SSFQDILLR was tested, and the Kd (HLA-A*31:01 [1]; source organism: Influenza A virus (A/X-31(H3N2))) was 309 nM and the Kd (HLA-A*03:01 [2]; source organism: Influenza A virus (A/Memphis/14/1998(H3N2))) was ≥ 20000 nM.
For TFYAEFPKK, the Kd (HLA-A*23:01; source organism: Escherichia coli F11) was 66.2 nM.
In the case of MRIGSMATL, the Kd (HLA-B*46:01 [3]; [27]) is reported as ≥ 20000 nM, the Kd (HLA-B*51:01 [4]) is reported as ≥ 20000 nM and the Kd (HLA-A*02:19 [5]) is reported as ≥ 20000 nM. For the same sequence, the Kd (HLA-A*02:12 [6]) was ≥ 20000 nM, the Kd (HLA-B*18:01) was ≥ 20000 nM and the Kd (HLA-B*15:01 [7]) was ≥ 20000 nM. For the same sequence, the Kd (HLA-A*03:01 [2]; [27]) was ≥ 20000 nM, the Kd (HLA-A*26:01 [8]) was ≥ 20000 nM and the Kd (HLA-A*02:01 [9]; [27]) was ≥ 20000 nM. The Kd (HLA-B*57:01 [10]) was ≥ 20000 nM and the Kd (HLA-A*02:16 [11]) was ≥ 20000 nM.
WLDSVIQYL was tested, and the Kd (HLA-A*69:01 [12]) was 963 nM, the Kd (HLA-C*03:03; source organism: Orthomarburgvirus marburgense) was 240 nM and the Kd (HLA-A*02:01 [9]; source organism: Marburg virus - Musoke, Kenya, 1980) was 143 nM.
For FTENGPWMY, the Kd (HLA-A*69:01 [13]; [28]) was ≥ 20000 nM, the Kd (HLA-B*15:01 [14]; [28]) was ≥ 20000 nM and the Kd (HLA-B*57:01 [15]; [28]) was ≥ 20000 nM. For the same sequence, the Kd (HLA-A*11:01 [16]) was ≥ 20000 nM, the Kd (HLA-B*46:01 [3]; [29]) was ≥ 20000 nM and the Kd (HLA-B*40:01) was ≥ 20000 nM. For the same sequence, the Kd (HLA-B*15:17) was 5.2 nM, the Kd (HLA-A*31:01 [17]) was ≥ 20000 nM and the Kd (HLA-B*27:05) was ≥ 20000 nM. For the same sequence, the Kd (HLA-B*08:02) was ≥ 20000 nM, the Kd (HLA-B*48:01) was ≥ 20000 nM and the Kd (HLA-A*03:01 [2]; [29]) was ≥ 20000 nM. The Kd (HLA-A*02:01 [9]; [29]) was ≥ 20000 nM, the Kd (HLA-A*01:01) was 2.7 nM and the Kd (HLA-B*58:01) was ≥ 20000 nM.
With IIAARNIVR the Kd (HLA-A*31:01 [1]; source organism: Influenza A virus H3N2) was 3.62 nM, the Kd (HLA-A*03:01 [2]; [30]) was 1540 nM and the Kd (HLA-A*11:01 [18]; [30]) was ≥ 20000 nM.
For WAKLLKQKW, the Kd (HLA-A*68:02) was ≥ 20000 nM, the Kd (HLA-A*69:01 [13]; [31]) was ≥ 20000 nM and the Kd (HLA-B*46:01 [19]) was ≥ 20000 nM. The Kd (HLA-B*51:01 [20]) was ≥ 20000 nM, the Kd (HLA-B*27:03) was ≥ 20000 nM and the Kd (HLA-A*02:19 [21]) was ≥ 20000 nM. For the same sequence, the Kd (HLA-B*39:01) was ≥ 20000 nM, the Kd (HLA-A*02:12 [22]) was ≥ 20000 nM and the Kd (HLA-A*02:11) was ≥ 20000 nM. The Kd (HLA-B*15:01 [14]; [31]) was ≥ 20000 nM, the Kd (HLA-A*03:01 [23]; [31]) was ≥ 20000 nM and the Kd (HLA-A*26:01 [24]) was ≥ 20000 nM. The Kd (HLA-A*02:01 [25]; [31]) was ≥ 20000 nM, the Kd (HLA-B*57:01 [15]; [31]) was 227 nM and the Kd (HLA-A*02:16 [26]; [31]) was ≥ 20000 nM.
For RLNFFTPTK, the Kd (HLA-A*31:01 [1]; [32]) was 2.3 nM, the Kd (HLA-A*03:01 [2]; [33]) was 5.9 nM and the Kd (HLA-A*11:01 [18]; [33]) was 3.1 nM.
With GMSSRAIAR the Kd (HLA-A*31:01 [1]; [34]) was 8.5 nM and the Kd (HLA-A*03:01 [23]; [34]) was 15 nM.
With VAYHFHEPL the Kd (HLA-C*03:03; [32]) was ≤ 1 nM.
FLFLYWPHY was tested, and the Kd (HLA-A*02:01 [25]; [35]) was 628 nM and the Kd (HLA-A*02:16 [26]; [35]) was 1740 nM.
In the case of TVKRYLQAK, the Kd (HLA-A*31:01 [1]; [34]) is reported as 55.7 nM and the Kd (HLA-A*03:01 [23]; [34]) is reported as 2840 nM.
With RVHSFFIQY the Kd (HLA-A*31:01 [1]; [36]) was 161 nM, the Kd (HLA-A*03:01 [2]; [36]) was 68.1 nM and the Kd (HLA-A*11:01 [18]; [36]) was ≤ 1 nM.
Work on DAMENPLSL yielded a Kd (HLA-C*03:03; source organism: Leishmania donovani) of 625 nM.
WYMRALYQK was tested, and the Kd (HLA-A*23:01; [31]) was 388 nM.
For DVNGIRKPK, the Kd (HLA-A*31:01 [1]; source organism: Orthohantavirus dobravaense) was ≥ 20000 nM, the Kd (HLA-A*03:01 [2]; source organism: Amur virus) was ≥ 20000 nM and the Kd (HLA-A*11:01 [18]; source organism: Amur virus) was ≥ 20000 nM.
